This assay concerns the target T1, CD137 (4-1BB) (human, UniProt Q07011 24-255).
T1 construct: whole, on cells; also called CD137 on stimulated human PBMC
In words: flow immunocytofluorimetry, hybridoma supernatant on anti-CD3 stimulated human PBMC, FITC goat anti-mouse IgG.

Results on one molecule are retold here after patent publication US20050136049A1 (TRUBION PHARMACEUTICALS, published 2005).

T1 sequence (Q07011 24-255): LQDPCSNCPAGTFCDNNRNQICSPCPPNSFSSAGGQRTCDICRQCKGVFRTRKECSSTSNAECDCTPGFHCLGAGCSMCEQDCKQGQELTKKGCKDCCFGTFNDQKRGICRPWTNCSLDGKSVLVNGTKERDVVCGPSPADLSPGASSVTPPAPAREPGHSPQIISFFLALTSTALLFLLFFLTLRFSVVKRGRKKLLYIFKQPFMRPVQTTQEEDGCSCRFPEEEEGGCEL
Description: Binding of 5B9 scFv IgG fusion protein or 5B9 murine monoclonal antibody was detected with FITC conjugated anti-human IgG or anti-mouse IgG, respectively.

B1: 5B9 monoclonal antibody (antibody, V domains shown)
VH: QVQLKQSGPGLVQSSQSLSITCTVSGFSLTTYAVHWVRQSPGKGLEWLGVIWSGGITDYNAAFISRLSITKDDSKSQVFFKMNSLQPNDTAIYYCARNGGDNYPYYYAMDYWGQGTSVTVSS
VL: DIVMTQAAFSNPVTLGTSASISCRSSKSLLHSNGITYLYWYLQKPGQSPQLLIYQMSNLASGVPDRFSSSGSGTDFTLRISRVEAEDVGVYYCAQNLELPLTFGAGTKLELKR
notes: also called 5B9 murine monoclonal antibody
As for B1, the binding result is listed as “binds”.
